In patent publication US10253076B2, “Peptides and combination of peptides for use in immunotherapy against ovarian cancer and other cancers” (immatics biotechnologies GmbH, priority 2015, dated 2019):

target: HLA-A*02:01 (Homo sapiens, UniProt P04439, D140Y/D185E/D98H/E176V/E277Q/G131W/G231S/I119V/I121R/I166T/I218V/L300P/L318F/N151K/N90K/P208A/P217A/Q86G/Q94H/R138H/R169H/T345S); assay: MHC binding assay (UV-ligand exchange, beta2m ELISA, peptide exchange yield); details: binding of HLA-class I restricted peptides to HLA-A*02:01, ranged by peptide exchange yield (UV-ligand exchange, β2m ELISA)
Description: Candidate peptides for T cell based therapies according to the present invention were further tested for their MHC binding capacity (affinity). The individual peptide-MHC complexes were produced by UV-ligand exchange, where a UV-sensitive peptide is cleaved upon UV-irradiation, and exchanged with the peptide of interest as analyzed. Only peptide candidates that can effectively bind and stabilize the peptide-receptive MHC molecules prevent dissociation of the MHC complexes. To determine the yield of the exchange reaction, an ELISA was performed based on the detection of the light chain (β2m) of stabilized MHC complexes. The assay was performed as generally described in Rodenko et al. (Rodenko et al., 2006).
96 well MAXISorp plates (NUNC) were coated over night with 2ug/ml streptavidin in PBS at room temperature, washed 4× and blocked for 1 h at 37° C. in 2% BSA containing blocking buffer. […] Peptide-MHC monomers of the UV-exchange reaction were diluted 100 fold in blocking buffer. Samples were incubated for 1 h at 37° C., washed four times, incubated with 2ug/ml HRP conjugated anti-82m for 1 h at 37° C., washed again and detected with TMB solution that is stopped with […]. Absorption was measured at 450 nm. Candidate peptides that show a high exchange yield (preferably higher than 50%, most preferred higher than 75%) are generally preferred for a generation and production of antibodies or fragments thereof, and/or T cell receptors or fragments thereof, as they show sufficient avidity to the MHC molecules and prevent dissociation of the MHC complexes.

Peptide exchange | Substance
″+++″ (≥50% = +++) | 73 (NIFDLQIYV; listed as Homo sapiens) [compound 73]
″+++″ (≥50% = +++) | 74 (ALLDPEVLSIFV; listed as Homo sapiens) [compound 74]
″+++″ (≥50% = +++) | 75 (GLLEVMVNL; listed as Homo sapiens) [compound 75]
″+++″ (≥50% = +++) | 76 (ILIDSIYKV; listed as Homo sapiens) [compound 76]
″++++″ (≥75% = ++++) | 77 (ILVEADGAWVV; listed as Homo sapiens) [compound 77]
″+++″ (≥50% = +++) | 78 (SLFSSLEPQIQPV; listed as Homo sapiens) [compound 78]
″++″ (≥20% = ++) | 80 (FLYDNLVESL; listed as Homo sapiens) [compound 80]
″++″ (≥20% = ++) | 81 (FLFSQLQYL; listed as Homo sapiens) [compound 81]
″+++″ (≥50% = +++) | 82 (FLSSVTYNL; listed as Homo sapiens) [compound 82]
″+++″ (≥50% = +++) | 83 (ILAPTVMMI; listed as Homo sapiens) [compound 83]
″++″ (≥20% = ++) | 84 (VTFGEKLLGV; listed as Homo sapiens) [compound 84]
″+++″ (≥50% = +++) | 85 (KMSELRVTL; listed as Homo sapiens) [compound 85]
″+++″ (≥50% = +++) | 86 (NLIGKIENV; listed as Homo sapiens) [compound 86]
″++″ (≥20% = ++) | 87 (ALPEAPAPLLPHIT; listed as Homo sapiens) [compound 87]
″+++″ (≥50% = +++) | 88 (FLLVGDLMAV; listed as Homo sapiens) [compound 88]
″++++″ (≥75% = ++++) | 89 (YILPTETIYV; listed as Homo sapiens) [compound 89]
″+++″ (≥50% = +++) | 90 (TLLQIIETV; listed as Homo sapiens) [compound 90]
″++++″ (≥75% = ++++) | 91 (IMQDFPAEIFL; listed as Homo sapiens) [compound 91]
″++″ (≥20% = ++) | 92 (YLIPFTGIVGL; listed as Homo sapiens) [compound 92]
″++″ (≥20% = ++) | 93 (LLQAIKLYL; listed as Homo sapiens) [compound 93]
″++″ (≥20% = ++) | 94 (YLIDIKTIAI; listed as Homo sapiens) [compound 94]
″+++″ (≥50% = +++) | 95 (SVIPQIQKV; listed as Homo sapiens) [compound 95]
″+++″ (≥50% = +++) | 96 (YIFTDNPAAV; listed as Homo sapiens) [compound 96]
″+++″ (≥50% = +++) | 97 (SLINGSFLV; listed as Homo sapiens) [compound 97]

Peptide exchange | Substance
″+++″ (≥50% = +++) | 98 (LIIDQADIYL; listed as Homo sapiens) [compound 98]
″++″ (≥20% = ++) | 99 (ALVSKGLATV; listed as Homo sapiens) [compound 99]
″++++″ (≥75% = ++++) | 100 (YLLSTNAQL; listed as Homo sapiens) [compound 100]
″+++″ (≥50% = +++) | 101 (ILVGGGALATV; listed as Homo sapiens) [compound 101]
″+++″ (≥50% = +++) | 102 (YLFESEGLVL; listed as Homo sapiens) [compound 102]
″+++″ (≥50% = +++) | 103 (TLAEEVVAL; listed as Homo sapiens) [compound 103]
″++++″ (≥75% = ++++) | 104 (STMEQNFLL; listed as Homo sapiens) [compound 104]
″+++″ (≥50% = +++) | 106 (LLYDAVHIVSV; listed as Homo sapiens) [compound 106]
″+++″ (≥50% = +++) | 107 (FLQPVDDTQHL; listed as Homo sapiens) [compound 107]
″++++″ (≥75% = ++++) | 108 (ALFPGVALLLA; listed as Homo sapiens) [compound 108]
″++++″ (≥75% = ++++) | 109 (IILSILEQA; listed as Homo sapiens) [compound 109]
″+++″ (≥50% = +++) | 110 (FLSQVDFEL; listed as Homo sapiens) [compound 110]
″+++″ (≥50% = +++) | 111 (YVWGFYPAEV; listed as Homo sapiens) [compound 111]
″++″ (≥20% = ++) | 114 (SLVGEPILQNV; listed as Homo sapiens) [compound 114]
″++″ (≥20% = ++) | 115 (AIAGAGILYGV; listed as Homo sapiens) [compound 115]
″+″ (≥10% = +) | 116 (YHIDEEVGF; listed as Homo sapiens) [compound 116]
″+++″ (≥50% = +++) | 117 (ILPDGEDFLAV; listed as Homo sapiens) [compound 117]
″++++″ (≥75% = ++++) | 119 (FLYIGDIVSL; listed as Homo sapiens) [compound 119]
″+++″ (≥50% = +++) | 120 (ALLGIPLTLV; listed as Homo sapiens) [compound 120]
″++″ (≥20% = ++) | 121 (GVVDPRAISVL; listed as Homo sapiens) [compound 121]
″+++″ (≥50% = +++) | 122 (FLLAEDDIYL; listed as Homo sapiens) [compound 122]
″+++″ (≥50% = +++) | 123 (NLWDLTDASVV; listed as Homo sapiens) [compound 123]
″++″ (≥20% = ++) | 124 (ALYETELADA; listed as Homo sapiens) [compound 124]
″+++″ (≥50% = +++) | 125 (VQIHQVAQV; listed as Homo sapiens) [compound 125]

Peptide exchange | Substance
″++++″ (≥75% = ++++) | 126 (VLAYFLPEA; listed as Homo sapiens) [compound 126]
″++″ (≥20% = ++) | 127 (KIGDEPPKV; listed as Homo sapiens) [compound 127]
″++″ (≥20% = ++) | 128 (YLFDDPLSAV; listed as Homo sapiens) [compound 128]
″+++″ (≥50% = +++) | 129 (GLLDGGVDILL; listed as Homo sapiens) [compound 129]
″+++″ (≥50% = +++) | 130 (FLWNGEDSALL; listed as Homo sapiens) [compound 130]
″++″ (≥20% = ++) | 131 (FVPPVTVFPSL; listed as Homo sapiens) [compound 131]
″+++″ (≥50% = +++) | 132 (LLVEQPPLAGV; listed as Homo sapiens) [compound 132]
″++″ (≥20% = ++) | 133 (KVLSNIHTV; listed as Homo sapiens) [compound 133]
″+++″ (≥50% = +++) | 134 (YLQELIFSV; listed as Homo sapiens) [compound 134]
″+++″ (≥50% = +++) | 135 (ALSEVDFQL; listed as Homo sapiens) [compound 135]
″+++″ (≥50% = +++) | 136 (YLADPSNLFVV; listed as Homo sapiens) [compound 136]
″++++″ (≥75% = ++++) | 137 (TLVLTLPTV; listed as Homo sapiens) [compound 137]
″+++″ (≥50% = +++) | 138 (YQYPRAILSV; listed as Homo sapiens) [compound 138]
″+++″ (≥50% = +++) | 139 (SVMEVNSGIYRV; listed as Homo sapiens) [compound 139]
″++″ (≥20% = ++) | 140 (YMDAPKAAL; listed as Homo sapiens) [compound 140]
″+++″ (≥50% = +++) | 142 (FLFATPVFI; listed as Homo sapiens) [compound 142]
″+++″ (≥50% = +++) | 144 (YIMEPSIFNTL; listed as Homo sapiens) [compound 144]
″++″ (≥20% = ++) | 145 (FLATSGTLAGI; listed as Homo sapiens) [compound 145]
″++″ (≥20% = ++) | 146 (SLATAGDGLIEL; listed as Homo sapiens) [compound 146]
″+++″ (≥50% = +++) | 147 (SLLEAVSFL; listed as Homo sapiens) [compound 147]
″++″ (≥20% = ++) | 148 (ALNPEIVSV; listed as Homo sapiens) [compound 148]
″+++″ (≥50% = +++) | 149 (NLLELFVQL; listed as Homo sapiens) [compound 149]
″+++″ (≥50% = +++) | 151 (KILQQLVTL; listed as Homo sapiens) [compound 151]
